This passage reports Kd results from PMC6648891.

In this series the target is T1, FOXC2 DBD (Homo sapiens, UniProt Q99958 60-198).
T1 sequence: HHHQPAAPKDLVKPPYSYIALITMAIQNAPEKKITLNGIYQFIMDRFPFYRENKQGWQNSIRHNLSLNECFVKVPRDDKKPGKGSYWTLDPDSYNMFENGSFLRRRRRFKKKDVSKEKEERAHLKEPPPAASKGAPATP
The series can be described thus: EMSA.

B1: 16 bp EMSA DNA (dsDNA)
DNA 1: CAAGGTAAACAAACCA
DNA 2: TGGTTTGTTTACCTTG
For B1, the Kd (as a rule, the constant that tells how readily two partners part at equilibrium) was determined as 26.4 µM.
